Measured values published in doi:10.1101/2021.01.20.427433.

Biological target: 6xHis-XRCC4^1-164 (C-to-A), wildtype for the SIMs (human) (UniProt Q13426)
Assay: SPR

fold increase in KD against full-length XRCC4: 3 fold
Substance: polySUMO2 chains (enzymatically linked via the internal K11) (from UniProt P61956 1-95)
